The source of these data is US20260139023A1.

For this test, the target named is full-length integrin αVβ5 ectopically expressed on HEK293T cells (UniProt P06756). Put plainly: cell-based or functional assay.
Chain of full-length integrin αVβ5 ectopically expressed on HEK293T cells (P06756 31-1048 limits assumed, chain 1 of 2): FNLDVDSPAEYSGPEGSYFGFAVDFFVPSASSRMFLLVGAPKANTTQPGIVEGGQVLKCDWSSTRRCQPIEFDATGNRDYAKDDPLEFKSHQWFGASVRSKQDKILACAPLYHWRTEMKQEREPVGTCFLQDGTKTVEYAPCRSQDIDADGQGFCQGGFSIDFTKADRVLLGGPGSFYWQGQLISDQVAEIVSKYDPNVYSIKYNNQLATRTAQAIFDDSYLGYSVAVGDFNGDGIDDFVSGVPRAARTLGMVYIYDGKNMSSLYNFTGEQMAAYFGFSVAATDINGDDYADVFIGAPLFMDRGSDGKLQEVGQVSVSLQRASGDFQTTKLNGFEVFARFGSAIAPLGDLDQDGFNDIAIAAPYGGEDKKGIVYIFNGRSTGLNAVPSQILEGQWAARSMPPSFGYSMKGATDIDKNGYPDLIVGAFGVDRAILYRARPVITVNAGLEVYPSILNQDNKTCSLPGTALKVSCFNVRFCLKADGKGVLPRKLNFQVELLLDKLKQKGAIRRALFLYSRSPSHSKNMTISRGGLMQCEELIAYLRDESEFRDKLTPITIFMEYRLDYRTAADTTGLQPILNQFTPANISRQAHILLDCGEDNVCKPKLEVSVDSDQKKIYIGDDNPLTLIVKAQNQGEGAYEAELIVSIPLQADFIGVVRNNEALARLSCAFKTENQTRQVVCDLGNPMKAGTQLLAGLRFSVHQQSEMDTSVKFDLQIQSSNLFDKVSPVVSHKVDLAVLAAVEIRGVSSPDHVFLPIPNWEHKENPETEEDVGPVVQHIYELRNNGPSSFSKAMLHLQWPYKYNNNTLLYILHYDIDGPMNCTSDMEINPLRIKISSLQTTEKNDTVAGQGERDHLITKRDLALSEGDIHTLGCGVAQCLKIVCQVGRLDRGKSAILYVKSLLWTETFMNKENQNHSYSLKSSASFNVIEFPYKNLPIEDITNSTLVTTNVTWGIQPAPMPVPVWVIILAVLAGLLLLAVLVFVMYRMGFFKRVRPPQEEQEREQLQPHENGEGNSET
Chain of full-length integrin αVβ5 ectopically expressed on HEK293T cells (P18084 24-799 limits assumed, chain 2 of 2, further chain): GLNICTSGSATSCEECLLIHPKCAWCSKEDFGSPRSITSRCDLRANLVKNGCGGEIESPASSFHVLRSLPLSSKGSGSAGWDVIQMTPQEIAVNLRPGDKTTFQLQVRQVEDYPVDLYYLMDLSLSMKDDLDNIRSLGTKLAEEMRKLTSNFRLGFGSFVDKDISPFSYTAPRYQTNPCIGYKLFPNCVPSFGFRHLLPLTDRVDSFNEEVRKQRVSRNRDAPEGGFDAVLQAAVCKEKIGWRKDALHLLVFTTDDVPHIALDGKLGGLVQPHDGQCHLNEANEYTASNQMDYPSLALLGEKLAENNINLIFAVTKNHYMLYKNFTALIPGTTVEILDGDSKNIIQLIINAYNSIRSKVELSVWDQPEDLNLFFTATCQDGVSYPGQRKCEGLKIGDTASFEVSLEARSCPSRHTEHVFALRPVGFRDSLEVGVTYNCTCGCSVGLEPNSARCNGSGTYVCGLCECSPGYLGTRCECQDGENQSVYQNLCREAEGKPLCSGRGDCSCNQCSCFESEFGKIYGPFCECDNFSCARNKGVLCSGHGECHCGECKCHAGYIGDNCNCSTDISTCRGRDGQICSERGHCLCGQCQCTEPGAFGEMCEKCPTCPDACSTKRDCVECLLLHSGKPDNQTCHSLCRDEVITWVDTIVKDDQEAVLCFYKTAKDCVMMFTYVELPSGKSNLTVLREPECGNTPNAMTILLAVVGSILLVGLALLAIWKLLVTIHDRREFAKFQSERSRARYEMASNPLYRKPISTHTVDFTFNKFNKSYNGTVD

Regarding “irisin N45Q mutant (irisin glycosylation mutant, recombinant, from mammalian Expi293 cells) (from UniProt Q8K3V5 60-171) (ligand)”, the concentration at maximal integrin signaling (pFAK western blot, HEK293T cells pretreated with Hsp90α) turned out to be 0.1 nM and the fold more potent integrin signaling than WT irisin lay within 5 to 10 fold.
